B1: Aat05-Amino acid transporter 05 promoter/5′UTR: putative nitrogen-regulated promoter/5′UTR, SEQ ID NO: 66 (nucleic acid, listed as Prototheca moriformis)
DNA: CCGAGCAGTTCATGGCCAAGTACAAGGACTAGAGACCGGAGGTCGGTAGGCTGAATGGAGCTGGCGTCGTCGTGCGCGACGTGCACGCGATGCGATACTACGACCCCACAAACGCATGCCTCCCATCTTGATGCCTTTCCGGCCATTTATACTATTTCTCATTTCGCTGTAACATCTTGAATAATAGAATTGCCCTGTGTCAAGTGGATTCCAAGAAATATTCTGTCCCAACAAAACAACCCAACCTGAAAACAACCTCAAATACCACCAGCCCTGCCCACCTGCCCAGTACACTTTTCCAATACCATCTCCCTACCTTCACGCGCAAGCGGCACCCATGCGCGACCAGGCTCGAAAGGATTTCACGACTCAGGACGAGCGAGTGGCGGCGCGACCGCCTGCCTGTTCGTCACGTGCCGTACGTCGGCGACCGCTAGAGCTTTGCCTGGCAACCCCCGGCTTCGTCAACCCGGCCAGCCAGGATCTCGACCACTCTACCGCGAAATCGCCTCAAGAAGTCGCCAAAAGTGCCGTACACCATGCTTCGCAGCGCTGTTCAAACTTGATGCCAATCTTGACAATCAGGTTGCTCGTTGGCTGCGTCCACATCGGCCGTGATTGCAGCAGGCGGGGATCGGACACGGAGGACGCGGCGTCACGCCGCGAACGCAGCCCGTAACTCTACATCAACGCGATATGTTGCGTAATCCCGCCCGGCTGCGCATTGTGACAACCCATTCGCGATGGATGGTCGGAAAATGGTGTGCCAACTGCCCTGAGGGACTCTCTCGCGAAACGGGCACGTCCCTGTATCCGAAACTGTGGCATGGCCTTGTCGACCACGCAAGCACGTGGACCCTAACACCACGAAAATAAGTAAAAAAGGTTGACATCCTCTACGAGCGAATTGTTTGCTCGACCCTTCATCGCACACTGTCATTATAATGCATCTAGCTCGGCGACAAGTTTAAAAAAGGCAGGCTGCATTATTCCATTTTGCCGTGGCGGCATGGGTGCCCATTTTATGAGGTTTGGGCTCTTGGGCAGCGACCGAGCCAGGTTGAGTCCCTCTCGCCCGTCGACAACGTTCCAAAGCCCATAAGTGGCTAATAAACAACTTGATGGTACCTGTACACTGCCAGTTCCTTCTTCCCCGGCCGAGGTTTACACGTGATGGCCATGGCTTCGCGTTTCAGGCTGACTTCCCATTCCGACTTTCCAGAGGGTCCGCGGACGCCGGGGGTTGGCTGCGTGAGGCCCACCCCTTGTTCCCCGCGTCCCGACAAACACAATTGCGTTACATAAGGGGGAAGCCGCCCCCCGTTCAGAGTGCAAACATCTTTCATTATATTTTTCAGTCGTCAGCGAAATCAAGTATGTCGCTGACAGGCATGAAGGCC
B2: Aat02-Amino acid transporter 02 promoter/5′UTR: putative nitrogen-regulated promoter/5′UTR, SEQ ID NO: 63 (nucleic acid, listed as Prototheca moriformis)
DNA: AGAGAGCGGAGGTGGGGTTGTGAGGTGGGGTTGCTGACCAGGAGCTCGCGTCGCCGAGCGCGACTCGCACACGGTCCAGTTACCCCCCCCTCCGCCCAAACGCAAGCCTCCCATCTTGATGCCTTTCCGGCCACCTATACTATTTCTTAGTTCGCTGTAACATCCAGACCGTCCTGAATAATAACAATGCCCTGTGTCAAGTGCATTCCTAAAAAAATTCTGTCCCAACCAACAATCCCACCTGAAATACCACCAGCCCTGCCCAGTACACTCTTCCAATACCATCTCCCTACCTCCACGCGCAAGCGACCCCCATGCGCGACCAGGCTCGAAAGTGATTTATGACTTGAGACGAGCGAGTGGCGGCGCGGTCGACTGCCTTTTCATCACGTGCCGTACGTCGGCGACCGCTAGGGCTTTGCACGGCAACGCACGGCTTCGCCAACCCGACCAGCCAGGACCTCGACTACTCTACCGCGAATTCGCCTCAAGAAGTCGCCAAATGTGCCATACACCATTCCTTACAGCACTGTTCAAACTTGATGCCAATTTTGACATTCGGGTTGCTCGTTGGCTGCGCCCACATCGGCCGTGAGTGCAGCAGGCGGGATCGGACACGGAGGACGCGGCGTCACGCCCCGAACGCAGCCCGTAACTCTACATCAACACGACGTGTTGCGTAATCCCGCCCGGCTGCGCATCGTGCCAACCCATTCGCGATGGATGGTCGGAAAATGGTGTGCCAACTGCCCTGAGGGAGGCTCTCGCGAAACGGGCACGTCCCTGAAACCGAAACTGTGGCCTTGTCGTCGGCCACGCAAGCACGTGGACCCTAAACACCAAGAAAATCAGTAAACAAGGTTGACATCCTCTACGGGCGAATTGTTTGCCCAACCCTTCATCGCACACTGCCATTATAATGCATCTAGCTCGGCGACAAGTTTAGAAAAGGCAGGCTGCATTGTTCCATTTCGCCGTGGCGGCGTGGGTGCCCATTTTACGAGGTTTGGGCTCCCGGGCAGCGACCGAGCCAGGTCGAGTCCCTCTCGCCCGTCGACAATGTTGCGAACCCCACAAGCGGCTAACAACAACTTGATGGTACCTGTACACTGCCAATTCCTTCTTCCCCGGCCGAGGTTTACACGTGATGGCCATGGCTTCGCATTCAGGCCGACTTCCCATTCCGACTTTCCAGAGGGTCCGCGGACGCTGGGGGTTGGCTGCCTGAGGCCCACCCTTTGTTCCCCGCGTCCCGACAAACACAATTGCGTTACATAAGGGGGAGCCGCCCCCGTTCAGAGTGCAGAAATCTTTCACTATATTTTCCAGTCGTCAGCGAAATCAAGT
B3: Aat03-Amino acid transporter 03 promoter/5′UTR: putative nitrogen-regulated promoter/5′UTR, SEQ ID NO: 64 (nucleic acid, listed as Prototheca moriformis)
DNA: GATGGTGGGGTGTCTGCCTTGGGCTGGGTGATGGAGGCTGGTGGTGCGCGGGTTTCCTGATGCATTCTATCTACGCAGTGTCATGGTGTCCATTCCACACACCAGTACACCCTTACACTAAGGATCCATCCCTCCTTCCCTCTTCAGGACTACATGGACCCCACGAGCTACCGACCGGGCTTTCTCAAAAACGTCAAGGTCATGTTTGACATGCGGGACGTGGTGGACGACGTGCAAGGTGCGTCCGGAGTGCGCGCAAATGAGCAAGTCGGGCAATGTGTCGGGGTGGGCACCGGGGCTGGAGATCCGCGATCCCCGAGAAAACGCCGTACCACCCCCCGCGCTATTCCCTCGATTGCGCGCAGATGTGGTGACCGACACGGGGGACAACCTGGCGGACATGGGGCGCCGGACCTGGAAGCACGCCAAGTCGCACACGGGGAGGCTCGTGCAGTCCCCCCCATCGTACCTCAAGGGTCTCTTTGGTCGCGATCCAAAGTACGCTGGTGGCATGGCATGCCCGAAATGAACATCATGTGTGATCTCCGATTGCCAATGGCCACCTCCACGGACCACCTTGCAGGCGGAAGCGCAATCCAGGGCCCGAGCCTGACGAGGACGGAGACTCCTCGTCCAGCGCGGGGTCCCCGACCCGACGCAGCAGCCGACCCCTGCTAACCCGGCAACGATCGGACCAGCAACCTTGCTGTAGTTCCGATCCGTGATGACGGGCATTGCCGCCGCTCGATCCGCTTTGATGACTGTCTATTATTTGCGCGGAGCCCCCTCGGAACCCTACCCCGCTCTTGCAAGCCCCTTGCATCGGAGATCCTCGTGCGCCCGCCATGACCCCACTGGATTGCCCAACATCCTTCTTTATCGTGTAAAATGTGATTCCTCGGCTGCAATCGACTGGCCTTCGCTTCTGGCCCCAAGAGGGCTCGAACGTGCGGCAGCGAGGGCGCTGACACACCCAAGCCCTAGGGCTTTCAACGTCGGCTGCCAGGCCGGATAGGGGGATCGCCTCCTTTCCACCACCCACCTACGAGGGATTCGAGTCGGCTTCCAGCTCAGCTATTCGGCCGCGCCCCCGGCCCTGCAGACGTCCTCCAGTTTCCGAACAGGTCGCTCTCAGAACACCTGCCGCGGCTGCGATACGGCAGGCTCTCAAAGCGTCGAC
B4: NRAMP metal transporter promoter/5′UTR: putative nitrogen-regulated promoter/5′UTR, SEQ ID NO: 56 (nucleic acid, listed as Prototheca moriformis)
DNA: ACTAATTGCAATCGTGCAGTAATCATCGATATGGTCACAAGTAGATCCCCTACTGACACCCTCTCGTACATGTAGGCAATGTCATCGGCGCCGTCCTGCTGACCGATGCCGACGTAGCAGAGCAGACCCGGGCCGATCTGGGATACGAGCCGGCCCTCCACCTGCGCTCGAGGTGGAATCAAGTAAATAACCAATACACTTTTCGACACCACACAGAGTTGCACGGACGGTGGCGTACCTCTACGCTCGCGCTCTTCACGCGCTGGACGACCGCACGCATGAGCCCGGGTGGCTTGGTCTGGGCTGCAAAAATGCACAACAAACAAGTATCAGACGCTCATGGATGCACACGCGCTCCCAAGCACGCTCAGACTAAATATTACAGTAGCTCGTATCTGATAAGATATCGAGACATACCGCTCAACTCACCCGCAAACTGCGCCCCGCCAGGTGATGCGCACAGGGCCCCACCATGCGATCCATCGCATCGCTCCTCGAGGGCGCTATCACGTGGCCGGAGAGCGTTCACAGCGTACGCCACTGTATCTGGGCGGTATGCGGTCCGTCAACATGGAGACAGATACCCGCACCACCACCTTGCAAGCTCTTCCATATTGGAAGTAGAAAATTGTAATTGTATCATCGCACGAGGGGCCAACTTGCCGTCGGCGAGCTGGGCGACGAACACCACCTGGACGTTGTCGAGACTCGCTCGTGCCGTGCGCCGGGCCGCTGGGTATCCAGACCGTCGCC

Test system: Prototheca moriformis (UTEX 1435)
Assay: cDNA abundance by real-time RT-PCR under nitrogen depletion
Format: cell-based
Details: after 24 hours of culture in low nitrogen medium
Method: A cDNA library was generated from Prototheca moriformis (UTEX 1435) using standard techniques. The Prototheca moriformis cells were grown for 48 hours under nitrogen replete conditions. […] After about 24 hours in culture, the nitrogen supply in the media was completely depleted. The collected samples were immediately frozen using dry ice and isopropanol. Total RNA was subsequently isolated from the frozen cell pellet samples and a portion from each sample was held in reserve for RT-PCR studies. The rest of the total RNA harvested from the samples was subjected to polyA selection. Equimolar amounts of polyA selected RNA from each condition was then pooled and used to generate a cDNA library in vector pcDNA 3.0 (Invitrogen). Roughly 1200 clones were randomly picked from the resulting pooled cDNA library and subjected to sequencing on both strands. Approximately 68 different cDNAs were selected from among these 1200 sequences and used to design cDNA-specific primers for use in real-time RT-PCR studies. RNA isolated from the cell pellet samples that were held in reserve was used as substrate in the real time RT-PCR studies using the cDNA-specific primer sets generated above. This reserved RNA was converted into cDNA and used as substrate for RT-PCR for each of the 68 gene specific primer sets. […] As discussed in the specification, nitrogen depletion/limitation is a known inducer of lipogenesis in oleaginous microorganisms. Fold increase refers to the fold increase in cDNA abundance after 24 hours of culture in low nitrogen medium.

First: B1
Second: B2
The “Fold increased (cDNA abundance)” value of the first is higher: 6.71 for the first, 6.5 for the second.

Going from B3 to B4, the “Fold increased (cDNA abundance)” value rises from 7.87 to 9.65.

Reference: patent US10100341B2, “Tailored oils produced from recombinant oleaginous microorganisms” (Corbion Biotech, Inc., priority 2011, dated 2018)
